Results taken from patent publication US20140322307A1 (LIPOTEC S A, published 2014).

T1: Proteinase-Activated Receptor-2 (human, on human keratinocytes) (human, UniProt P55085 37-397)
T1 sequence (looked up): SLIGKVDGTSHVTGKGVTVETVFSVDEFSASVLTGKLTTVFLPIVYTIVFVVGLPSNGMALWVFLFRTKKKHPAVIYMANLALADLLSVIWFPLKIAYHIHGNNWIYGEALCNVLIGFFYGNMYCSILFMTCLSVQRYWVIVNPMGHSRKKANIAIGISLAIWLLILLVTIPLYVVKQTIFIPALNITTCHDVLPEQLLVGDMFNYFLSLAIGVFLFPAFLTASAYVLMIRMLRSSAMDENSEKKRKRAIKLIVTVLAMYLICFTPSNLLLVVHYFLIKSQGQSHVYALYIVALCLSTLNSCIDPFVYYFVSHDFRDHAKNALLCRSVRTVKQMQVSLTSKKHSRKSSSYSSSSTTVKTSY

T2: Proteinase-Activated Receptor-2 (rat, on rat DRG neurons) (rat, UniProt Q63645 37-397)
T2 sequence (looked up): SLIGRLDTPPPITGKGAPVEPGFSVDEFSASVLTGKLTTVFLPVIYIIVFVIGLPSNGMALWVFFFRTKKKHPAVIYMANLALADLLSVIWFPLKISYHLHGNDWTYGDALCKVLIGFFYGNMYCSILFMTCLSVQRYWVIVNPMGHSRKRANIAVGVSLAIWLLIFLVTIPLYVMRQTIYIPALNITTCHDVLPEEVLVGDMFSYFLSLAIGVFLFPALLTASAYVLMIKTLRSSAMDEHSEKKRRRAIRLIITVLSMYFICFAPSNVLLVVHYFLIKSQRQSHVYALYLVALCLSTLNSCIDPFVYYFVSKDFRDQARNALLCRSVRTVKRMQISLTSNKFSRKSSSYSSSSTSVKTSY

B1: Ac-L-Phe-L-Phe-L-Trp-L-Phe-L-His-L-Val-NH2 (peptide)
peptide: Ac-FFWFHV-NH2
B2: Ac-L-Phe-L-Phe-L-Trp-L-Phe-L-Ile-L-Val-NH2 (peptide)
peptide: Ac-FFWFIV-NH2
B3: Ac-L-Ser-L-Met-L-Trp-L-Phe-L-Ile-L-Val-NH2 (peptide)
peptide: Ac-SMWFIV-NH2
B4: Ac-L-Phe-L-Phe-L-Trp-L-Asp-L-Ile-L-Val-NH2 (peptide)
peptide: Ac-FFWDIV-NH2
B5: Ac-L-Phe-L-Met-L-Trp-L-Phe-L-His-L-Val-NH2 (peptide)
peptide: Ac-FMWFHV-NH2

Target: T1, Proteinase-Activated Receptor-2 (human, …)
Experiment: cell-based or functional assay

| Inhibition PAR-2 activity (calcium fluorescence, human keratinocytes, peptide at 1 mg/mL) [%] | PAR-2 activity (calcium fluorescence, human keratinocytes, peptide at 1 mg/mL) [%] | Binder |
| --- | --- | --- |
| 67.8 | 32.2 | B1 |
| 13.9 | 86.1 | B2 |
| 43.3 | 56.7 | B3 |
| 67.4 | 32.6 | B4 |
| 76.5 | 23.5 | B5 |

Target: T2, Proteinase-Activated Receptor-2 (rat, …)
Experiment: cell-based or functional assay

| % CGRP (release from rat DRG neurons after PAR-2 agonist I and capsaicin; peptide at 25 µg/mL) [%] | % CGRP (release from rat DRG neurons after PAR-2 agonist I and capsaicin; peptide at 0.5 mg/mL) [%] | Binder |
| --- | --- | --- |
| 58.9 | 17.7 | B1 |
| 78.7 | 20.3 | B4 |
| 70.1 | 20.2 | B5 |
